{
  "source": "paper PMC8476742",
  "about": "“Mapping Potential Determinants of Peroxidative Activity in an Evolved Fungal Peroxygenase from Agrocybe aegerita” (Frontiers in Bioengineering and Biotechnology, 2021)",
  "assay_in_all_cases": "purified protein",
  "format_in_all_cases": "biochemical, Cyclocybe aegerita",
  "key": {"purified protein [1]": {"substrate": "O=[N+]([O-])c1ccc2c(c1)OCO2", "conditions": "1 mM H2O2, 100 mM potassium phosphate pH 7.0, 15% acetonitrile"}, "purified protein [2]": {"substrate": "CCn1c(=NN=c2sc3cc(S(=O)(=O)O)ccc3n2CC)sc2cc(S(=O)(=O)O)ccc21"}, "purified protein [3]": {"substrate": "COc1ccc(CO)cc1OC", "conditions": "2 mM H2O2, 100 mM potassium phosphate pH 7.0, clone 23"}, "[4]": {"conditions": "2 mM H2O2, 100 mM sodium phosphate-citrate pH 3.0, clone 8"}, "[5]": {"conditions": "2 mM H2O2, 100 mM sodium phosphate-citrate pH 3.0, clone 23"}},
  "data": [
    {"protein": "PaDa-I (Cyclocybe aegerita; A359H/A360H/F354L/G361I/I291V/L110F/V100A/V118I) (protein, evolved secretion variant, mature secreted enzyme; signal peptide mutations F12Y, A14V, R15G, A21D; expressed in Saccharomyces cerevisiae BJ5464, purified by ion exchange, no tag mentioned; heme-thiolate) EPGLPPGPLENSSAKLVNDEAHPWKPLRPGDIRGPCPGLNTLASHGYLPRNGVATPAQIINAVQEGFNFDNQAAIFATYAAHLVDGNLITDLLSIGRKTRLTGPDPPPPASVGGLNEHGTFEGDASMTRGDAFFGNNHDFNETLFEQLVDYSNRFGGGKYNLTVAGELRFKRIQDSIATNPNFSFVDFRFFTAYGETTFPANLFVDGRRDDGQLDMDAARSFFQFSRMPDDFFRAPSPRSGTGVEVVVQAHPMQPGRNVGKINSYTVDPTSSDFSTPCLMYEKFVNITVKSLYPNPTVQLRKALNTNLDFLFQGVHHICTQVFPYGRD", "values": [
      {"measurement": "Km", "setting": "purified protein [1]; clone 8", "result": "437 ± 53", "unit": "µM"},
      {"measurement": "kcat", "setting": "purified protein [1]; clone 8", "result": "368 ± 19", "unit": "s⁻¹"},
      {"measurement": "kcat/Km", "setting": "purified protein [1]; clone 8", "result": "842000 ± 111000", "unit": "M⁻¹ s⁻¹"},
      {"measurement": "Km", "setting": "purified protein [2]; [4]", "result": "14 ± 2.4", "unit": "µM"},
      {"measurement": "kcat", "setting": "purified protein [2]; [4]", "result": "239 ± 13", "unit": "s⁻¹"},
      {"measurement": "kcat/Km", "setting": "purified protein [2]; [4]", "result": "1.68e+07 ± 3.03e+06", "unit": "M⁻¹ s⁻¹"}
    ]},
    {"protein": "PaDa-I (Cyclocybe aegerita; A359S/A360N/F354L/G361L/I291V/L110F/V100A/V118I/V358L) (protein, evolved secretion variant, mature secreted enzyme; signal peptide mutations F12Y, A14V, R15G, A21D; expressed in Saccharomyces cerevisiae BJ5464, purified by ion exchange, no tag mentioned; heme-thiolate) EPGLPPGPLENSSAKLVNDEAHPWKPLRPGDIRGPCPGLNTLASHGYLPRNGVATPAQIINAVQEGFNFDNQAAIFATYAAHLVDGNLITDLLSIGRKTRLTGPDPPPPASVGGLNEHGTFEGDASMTRGDAFFGNNHDFNETLFEQLVDYSNRFGGGKYNLTVAGELRFKRIQDSIATNPNFSFVDFRFFTAYGETTFPANLFVDGRRDDGQLDMDAARSFFQFSRMPDDFFRAPSPRSGTGVEVVVQAHPMQPGRNVGKINSYTVDPTSSDFSTPCLMYEKFVNITVKSLYPNPTVQLRKALNTNLDFLFQGLSNLCTQVFPYGRD", "values": [
      {"measurement": "Km", "setting": "purified protein [3]", "result": "4920 ± 450", "unit": "µM"},
      {"measurement": "kcat", "setting": "purified protein [3]", "result": "151 ± 4", "unit": "s⁻¹"},
      {"measurement": "kcat/Km", "setting": "purified protein [3]", "result": "31000 ± 3000", "unit": "M⁻¹ s⁻¹"},
      {"measurement": "Km", "setting": "purified protein [1]; clone 23", "result": "376 ± 40", "unit": "µM"},
      {"measurement": "kcat", "setting": "purified protein [1]; clone 23", "result": "367 ± 16", "unit": "s⁻¹"},
      {"measurement": "kcat/Km", "setting": "purified protein [1]; clone 23", "result": "976000 ± 112000", "unit": "M⁻¹ s⁻¹"},
      {"measurement": "Km", "setting": "purified protein [2]; [5]", "result": "15 ± 2", "unit": "µM"},
      {"measurement": "kcat", "setting": "purified protein [2]; [5]", "result": "250 ± 11", "unit": "s⁻¹"},
      {"measurement": "kcat/Km", "setting": "purified protein [2]; [5]", "result": "1.67e+07 ± 2.34e+06", "unit": "M⁻¹ s⁻¹"}
    ]}
  ]
}
